Test results as given in PMC2795164, “VEZF1 Elements Mediate Protection from DNA Methylation”.

T1: VEZF1 (BGP1) (Gallus gallus (chicken), UniProt I6LDD9 1-555)
T1 sequence: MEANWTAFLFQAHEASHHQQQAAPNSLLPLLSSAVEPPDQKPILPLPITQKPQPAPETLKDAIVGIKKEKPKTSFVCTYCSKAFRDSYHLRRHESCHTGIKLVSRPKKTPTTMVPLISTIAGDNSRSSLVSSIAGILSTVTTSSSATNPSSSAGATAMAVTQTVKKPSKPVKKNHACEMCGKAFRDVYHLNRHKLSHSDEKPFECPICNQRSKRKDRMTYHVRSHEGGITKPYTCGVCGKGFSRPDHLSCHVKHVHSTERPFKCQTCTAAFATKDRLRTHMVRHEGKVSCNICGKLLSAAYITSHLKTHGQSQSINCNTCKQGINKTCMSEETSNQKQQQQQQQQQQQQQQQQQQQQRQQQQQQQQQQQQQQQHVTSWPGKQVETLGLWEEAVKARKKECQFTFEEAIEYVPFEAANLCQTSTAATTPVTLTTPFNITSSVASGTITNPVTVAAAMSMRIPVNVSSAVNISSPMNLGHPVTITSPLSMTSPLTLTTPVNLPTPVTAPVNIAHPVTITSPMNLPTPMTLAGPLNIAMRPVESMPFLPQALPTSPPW

T2: ZF5, recombinant (Gallus gallus (chicken), UniProt Q92010 1-448, R436A)
T2 sequence: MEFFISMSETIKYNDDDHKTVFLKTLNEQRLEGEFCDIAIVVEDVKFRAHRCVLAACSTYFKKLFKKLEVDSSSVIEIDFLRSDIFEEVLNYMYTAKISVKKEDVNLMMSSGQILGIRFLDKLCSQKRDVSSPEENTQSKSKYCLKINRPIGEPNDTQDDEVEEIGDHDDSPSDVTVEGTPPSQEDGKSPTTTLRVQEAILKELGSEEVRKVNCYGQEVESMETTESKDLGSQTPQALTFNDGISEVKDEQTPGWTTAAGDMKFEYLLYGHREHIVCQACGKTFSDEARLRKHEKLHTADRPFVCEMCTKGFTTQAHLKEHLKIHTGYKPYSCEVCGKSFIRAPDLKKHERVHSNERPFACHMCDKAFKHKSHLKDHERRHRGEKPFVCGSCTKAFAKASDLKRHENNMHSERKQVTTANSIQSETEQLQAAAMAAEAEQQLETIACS


What was measured:
VEZF1 (BGP1) [1] = target: T1, VEZF1 (BGP1); assay: EMSA; EMSA buffer, salt, pH and temperature not given in the material; competitors at 50-fold molar excess; settings: protein: ivt; label: 32P (probe); blunt
SP1, recombinant = SP1, recombinant (Gallus gallus (chicken), UniProt A0A8V1A4P9 1-760); assay: as above; settings: protein: recombinant; label: 32P (probe); blunt
SP3, recombinant = SP3, recombinant (Gallus gallus (chicken), UniProt Q90WR8 1-771); assay: as above; settings: protein: recombinant; label: 32P (probe); blunt
VEZF1 (BGP1) [2] = target: T1, VEZF1 (BGP1); assay: as above; settings: protein: ivt; label: 32P (probe); blunt; remark: listed apart in the source
ZF5, recombinant [3] = target: T2, ZF5, recombinant; assay: as above; settings: protein: recombinant; label: 32P (probe); blunt
ZF5, recombinant [4] = target: T2, ZF5, recombinant; assay: EMSA; no specificity for the dG-dC string; EMSA buffer, salt, pH and temperature not given in the material; competitors at 50-fold molar excess; settings: protein: recombinant; label: 32P (probe); blunt

Chain of SP3, recombinant (Q90WR8 whole entry): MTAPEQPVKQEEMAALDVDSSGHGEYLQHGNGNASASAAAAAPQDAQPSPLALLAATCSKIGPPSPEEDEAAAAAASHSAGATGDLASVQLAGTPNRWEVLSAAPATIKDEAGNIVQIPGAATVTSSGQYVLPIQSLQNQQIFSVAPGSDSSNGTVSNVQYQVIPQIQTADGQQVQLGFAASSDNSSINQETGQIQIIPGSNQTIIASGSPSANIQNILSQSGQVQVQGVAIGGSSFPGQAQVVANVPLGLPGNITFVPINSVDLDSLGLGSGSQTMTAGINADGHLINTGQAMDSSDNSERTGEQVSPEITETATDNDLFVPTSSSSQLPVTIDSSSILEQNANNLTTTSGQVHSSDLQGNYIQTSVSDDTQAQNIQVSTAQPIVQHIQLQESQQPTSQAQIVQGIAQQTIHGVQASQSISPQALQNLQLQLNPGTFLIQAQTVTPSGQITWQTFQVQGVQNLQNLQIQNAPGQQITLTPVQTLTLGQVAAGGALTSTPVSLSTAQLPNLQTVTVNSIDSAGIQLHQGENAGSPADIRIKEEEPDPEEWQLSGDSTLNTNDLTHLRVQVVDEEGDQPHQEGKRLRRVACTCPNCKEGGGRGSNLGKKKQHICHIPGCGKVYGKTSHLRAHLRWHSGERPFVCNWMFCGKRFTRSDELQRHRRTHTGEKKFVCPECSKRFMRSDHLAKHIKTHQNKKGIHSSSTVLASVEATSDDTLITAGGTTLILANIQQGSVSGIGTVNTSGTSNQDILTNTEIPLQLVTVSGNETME
Chain of SP1, recombinant (A0A8V1A4P9 entry or part of it): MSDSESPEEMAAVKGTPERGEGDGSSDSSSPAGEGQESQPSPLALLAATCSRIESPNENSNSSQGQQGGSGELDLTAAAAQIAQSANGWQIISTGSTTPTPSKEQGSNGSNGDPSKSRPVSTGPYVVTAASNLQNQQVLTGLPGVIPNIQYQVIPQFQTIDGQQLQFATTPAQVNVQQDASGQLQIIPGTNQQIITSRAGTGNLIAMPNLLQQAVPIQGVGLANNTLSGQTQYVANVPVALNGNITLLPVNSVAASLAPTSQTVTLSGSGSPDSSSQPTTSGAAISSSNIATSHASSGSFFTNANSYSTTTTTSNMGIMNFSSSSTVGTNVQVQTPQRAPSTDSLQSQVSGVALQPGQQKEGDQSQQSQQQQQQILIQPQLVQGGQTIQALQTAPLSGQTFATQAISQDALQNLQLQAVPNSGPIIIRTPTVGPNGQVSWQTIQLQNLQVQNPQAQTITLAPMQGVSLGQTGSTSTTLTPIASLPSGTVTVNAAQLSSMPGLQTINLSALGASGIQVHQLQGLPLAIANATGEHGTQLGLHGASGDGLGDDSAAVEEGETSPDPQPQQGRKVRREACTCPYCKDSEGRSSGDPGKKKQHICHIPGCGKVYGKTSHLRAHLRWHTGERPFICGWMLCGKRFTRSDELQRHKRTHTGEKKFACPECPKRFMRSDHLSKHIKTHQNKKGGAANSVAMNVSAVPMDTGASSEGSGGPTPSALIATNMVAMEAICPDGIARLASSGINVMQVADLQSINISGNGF

Row | Binder | binding signal (VEZF1 (BGP1) [1]) | binding result (SP1, recombinant) | binding result (SP3, recombinant) | binding result (VEZF1 (BGP1) [2]) | binding result (ZF5, recombinant [3]) | binding result (ZF5, recombinant [4])
1 | HS4 FV wt (dsDNA) DNA 1: CCTGCAGACACCTGGGGGGATACGGGGAAAAAGCTTTAGG DNA 2: CCTAAAGCTTTTTCCCCGTATCCCCCCAGGTGTCTGCAGG | ~5 fold lower affinity than FI and betaA sites | no binding | no binding |  |  | 
2 | glo wt (betaA-globin promoter, G16) (dsDNA) DNA 1: AATTGCAGAGCTGGGAATCGGGGGGGGGGGGGGGGCGGGTGGTGGTGTGG DNA 2: CCACACCACCACCCGCCCCCCCCCCCCCCCCGATTCCCAGCTCTGCAATT |  | binds | binds | binds |  | 
3 | HS4 FI wt (dsDNA) DNA 1: GGAGCTCACGGGGACAGCCCCCCCCCAAAGCCCCCAGGGA DNA 2: TCCCTGGGGGCTTTGGGGGGGGGCTGTCCCCGTGAGCTCC |  | binds | binds | binds | no binding | 
4 | HS4 FIII wt (dsDNA) DNA 1: AGGCGCGCCCCGGTCCGGCGCTCCCCCCGCATCCCCGAGCCGGGGCGCGCCT DNA 2: AGGCGCGCCCCGGCTCGGGGATGCGGGGGGAGCGCCGGACCGGGGCGCGCCT | ~2 fold lower affinity than FI and betaA sites | no binding | no binding |  |  | binds
